Measurements: PMC5065051, “Genetic and Biochemical Approaches for In Vivo and In Vitro Assessment of Protein Oligomerization: The Ryanodine Receptor Case Study” (Journal of Visualized Experiments : JoVE, 2016)

B1: RyR2 N-terminus domain (residues 1 - 906), cMyc-tagged (BT4L) or HA-tagged (AD4L), expressed in HEK293 (domain or fragment, human, UniProt Q92736 1-906, looked up)
chain: MADGGEGEDEIQFLRTDDEVVLQCTATIHKEQQKLCLAAEGFGNRLCFLESTSNSKNVPPDLSICTFVLEQSLSVRALQEMLANTVEKSEGQVDVEKWKFMMKTAQGGGHRTLLYGHAILLRHSYSGMYLCCLSTSRSSTDKLAFDVGLQEDTTGEACWWTIHPASKQRSEGEKVRVGDDLILVSVSSERYLHLSYGNGSLHVDAAFQQTLWSVAPISSGSEAAQGYLIGGDVLRLLHGHMDECLTVPSGEHGEEQRRTVHYEGGAVSVHARSLWRLETLRVAWSGSHIRWGQPFRLRHVTTGKYLSLMEDKNLLLMDKEKADVKSTAFTFRSSKEKLDVGVRKEVDGMGTSEIKYGDSVCYIQHVDTGLWLTYQSVDVKSVRMGSIQRKAIMHHEGHMDDGISLSRSQHEESRTARVIRSTVFLFNRFIRGLDALSKKAKASTVDLPIESVSLSLQDLIGYFHPPDEHLEHEDKQNRLRALKNRQNLFQEEGMINLVLECIDRLHVYSSAAHFADVAGREAGESWKSILNSLYELLAALIRGNRKNCAQFSGSLDWLISRLERLEASSGILEVLHCVLVESPEALNIIKEGHIKSIISLLDKHGRNHKVLDVLCSLCVCHGVAVRSNQHLICDNLLPGRDLLLQTRLVNHVSSMRPNIFLGVSEGSAQYKKWYYELMVDHTEPFVTAEATHLRVGWASTEGYSPYPGGGEEWGGNGVGDDLFSYGFDGLHLWSGCIARTVSSPNQHLLRTDDVISCCLDLSAPSISFRINGQPVQGMFENFNIDGLFFPVVSFSAGIKVRFLLGGRHGEFKFLPPPGYAPCYEAVLPKEKLKVEHSREYKQERTYTRDLLGPTVSLTQAAFTPIPVDTSQIVLPPHLERIREKLAENIHELWVMNKIELGWQYGP
notes: ryanodine receptor 2 (RyR2), human, residues 1-906; Two copies of the same stretch, each with ONE tag: in the co-IP cMyc-BT4L and HA-AD4L were co-expressed; in the cross-linking cMyc-BT4L was expressed alone; also called cMyc-BT4L; source: HEK293, transiently transfected (calcium phosphate), in lysate or homogenate

Columns and labels:
[1] = target: BT8, RyR2 extreme C-terminal domain (bait) (human); experiment: two-hybrid; GAL4 system in yeast; quantitative liquid culture β-Gal assay (ONPG), 30 °C; normalized against the positive control pVA3 + pTD1
[2] = target: the molecule itself; experiment: cross-linking; glutaraldehyde (0.0025% v/v, 0-60 min, RT) on HEK293 cell homogenate treated with dithiothreitol; SDS-PAGE and blot with Ab^cMyc

| Molecule | β-Gal activity, percent of the positive control (pVA3 + pTD1) [1] [%] | stoichiometry N [2] |
| --- | --- | --- |
| RyR2 N-terminal fragment (RyR2 residues 1 - 906), GAL4 fusions for yeast two-hybrid (from UniProt Q92736 1-906) (domain or fragment) | < 10 | – |
| B1 | – | 4 |
